Test results from publication PMC2132943.

Molecular target: CCR5 chemokine receptor (human) (UniProt P51681)
Experiment: cross-linking

Sequence of CCR5 chemokine receptor, P51681 1-352 (receptor; other documents disagree on this pair) (P51681 whole entry): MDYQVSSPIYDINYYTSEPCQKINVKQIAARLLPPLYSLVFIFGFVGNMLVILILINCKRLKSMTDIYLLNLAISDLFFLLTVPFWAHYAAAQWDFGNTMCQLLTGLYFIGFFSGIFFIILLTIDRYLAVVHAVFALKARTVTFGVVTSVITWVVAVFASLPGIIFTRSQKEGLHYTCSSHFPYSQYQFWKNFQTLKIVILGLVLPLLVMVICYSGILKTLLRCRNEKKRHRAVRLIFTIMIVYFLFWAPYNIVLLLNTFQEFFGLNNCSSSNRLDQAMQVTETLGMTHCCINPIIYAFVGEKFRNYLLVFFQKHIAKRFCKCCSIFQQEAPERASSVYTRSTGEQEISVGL

stoichiometry N: 2
Substance: CCR5 chemokine receptor, P51681 1-352 (receptor; other documents disagree on this pair)
